Reference: article PMC10397247
Values belong to the binder of their own block, whether it stands above or below them.

Experiments:
4H1359-bH = target: T1, 4H1359-bH; experiment: two-hybrid library CCNG1;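 also: natural log of median RNA to DNA barcode read ratio; higher means stronger binding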
T1 chain: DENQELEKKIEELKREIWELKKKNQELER

4H3638-bH = target: T2, 4H3638-bH; experiment: two-hybrid library CCNG1;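 also: natural log of median RNA to DNA barcode read ratio; higher means stronger binding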
T2 chain: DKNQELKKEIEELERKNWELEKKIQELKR

4H3974-bH = target: T3, 4H3974-bH; experiment: two-hybrid library CCNG1;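 also: natural log of median RNA to DNA barcode read ratio; higher means stronger binding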
T3 chain: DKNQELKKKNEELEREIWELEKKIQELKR

4H3414-bH = target: T4, 4H3414-bH; experiment: two-hybrid library CCNG1;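 also: natural log of median RNA to DNA barcode read ratio; higher means stronger binding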
T4 chain: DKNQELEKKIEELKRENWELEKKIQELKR

4H3817-bH = target: T5, 4H3817-bH; experiment: two-hybrid library CCNG1;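 also: natural log of median RNA to DNA barcode read ratio; higher means stronger binding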
T5 chain: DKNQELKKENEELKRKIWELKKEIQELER

4H1629-bH = target: T6, 4H1629-bH; experiment: two-hybrid library CCNG1;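 also: natural log of median RNA to DNA barcode read ratio; higher means stronger binding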
T6 chain: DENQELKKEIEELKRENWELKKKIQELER

4H932-bN = target: T7, 4H932-bN; experiment: two-hybrid library CCNG1
T7 chain: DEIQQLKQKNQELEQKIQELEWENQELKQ

4H3129-bH = target: T8, 4H3129-bH; experiment: two-hybrid library CCNG1
T8 chain: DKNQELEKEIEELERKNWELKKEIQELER

4H1985-bH = target: T9, 4H1985-bH; experiment: two-hybrid library CCNG1
T9 chain: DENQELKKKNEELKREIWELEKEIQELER

4H1710-bH = target: T10, 4H1710-bH; experiment: two-hybrid library CCNG1
T10 chain: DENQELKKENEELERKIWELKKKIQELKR

4H619-bH = target: T11, 4H619-bH; experiment: two-hybrid library CCNG1
T11 chain: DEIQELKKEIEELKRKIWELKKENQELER

4H1804-bH = target: T12, 4H1804-bH; experiment: two-hybrid library CCNG1
T12 chain: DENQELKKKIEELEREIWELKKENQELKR

4H584-bH = target: T13, 4H584-bH; experiment: two-hybrid library CCNG1
T13 chain: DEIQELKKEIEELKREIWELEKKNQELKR

4H570-bH = target: T14, 4H570-bH; experiment: two-hybrid library CCNG1
T14 chain: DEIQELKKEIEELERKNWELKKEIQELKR

4H3172-bH = target: T15, 4H3172-bH; experiment: two-hybrid library CCNG1
T15 chain: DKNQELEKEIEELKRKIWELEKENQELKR

4H3631-bH = target: T16, 4H3631-bH; experiment: two-hybrid library CCNG1
T16 chain: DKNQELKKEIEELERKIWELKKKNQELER

4H906-bH = target: T17, 4H906-bH; experiment: two-hybrid library CCNG1
T17 chain: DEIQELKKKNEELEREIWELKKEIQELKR

4H1449-bH = target: T18, 4H1449-bH; experiment: two-hybrid library CCNG1
T18 chain: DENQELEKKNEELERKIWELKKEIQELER

4H1393-bH = target: T19, 4H1393-bH; experiment: two-hybrid library CCNG1
T19 chain: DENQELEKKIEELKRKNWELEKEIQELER

4H850-bH = target: T20, 4H850-bH; experiment: two-hybrid library CCNG1
T20 chain: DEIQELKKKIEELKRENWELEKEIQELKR

APC8910-AA = target: T21, APC8910-AA; experiment: two-hybrid library CCmax; conditions: mean of both orientations
T21 chain: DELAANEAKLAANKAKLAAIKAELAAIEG

APC5383-AA = target: T22, APC5383-AA; experiment: two-hybrid library CCmax; conditions: mean of both orientations
T22 chain: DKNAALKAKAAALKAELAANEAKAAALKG

APC232-AA = target: T23, APC232-AA; experiment: two-hybrid library CCmax; conditions: mean of both orientations
T23 chain: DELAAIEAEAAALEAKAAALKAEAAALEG

4H716-AA = target: T24, 4H716-AA; experiment: two-hybrid library CCmax; conditions: mean of both orientations
T24 chain: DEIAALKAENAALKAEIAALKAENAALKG

4H807-AA = target: T25, 4H807-AA; experiment: two-hybrid library CCmax; conditions: mean of both orientations
T25 chain: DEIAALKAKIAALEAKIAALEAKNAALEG

APC7099-AA = target: T26, APC7099-AA; experiment: two-hybrid library CCmax; conditions: mean of both orientations
T26 chain: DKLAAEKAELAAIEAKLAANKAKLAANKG

APC9319-AA = target: T27, APC9319-AA; experiment: two-hybrid library CCmax; conditions: mean of both orientations
T27 chain: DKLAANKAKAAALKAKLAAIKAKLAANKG

APC2405-AA = target: T28, APC2405-AA; experiment: two-hybrid library CCmax; conditions: mean of both orientations
T28 chain: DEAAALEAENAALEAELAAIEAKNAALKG

APC1015-AA = target: T29, APC1015-AA; experiment: two-hybrid library CCmax; conditions: mean of both orientations
T29 chain: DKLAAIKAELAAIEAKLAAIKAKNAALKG

APC2237-AA = target: T30, APC2237-AA; experiment: two-hybrid library CCmax; conditions: mean of both orientations
T30 chain: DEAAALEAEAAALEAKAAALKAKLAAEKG

4H2148-AA = target: T31, 4H2148-AA; experiment: two-hybrid library CCmax; conditions: mean of both orientations
T31 chain: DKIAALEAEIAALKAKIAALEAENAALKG

4H2447-AA = target: T32, 4H2447-AA; experiment: two-hybrid library CCmax; conditions: mean of both orientations
T32 chain: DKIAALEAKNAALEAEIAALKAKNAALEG

APC8191-AA = target: T33, APC8191-AA; experiment: two-hybrid library CCmax; conditions: mean of both orientations
T33 chain: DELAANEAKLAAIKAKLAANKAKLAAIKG

4H3330-AA = target: T34, 4H3330-AA; experiment: two-hybrid library CCmax; conditions: mean of both orientations
T34 chain: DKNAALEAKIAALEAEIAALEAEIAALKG

4H2290-AA = target: T35, 4H2290-AA; experiment: two-hybrid library CCmax; conditions: mean of both orientations
T35 chain: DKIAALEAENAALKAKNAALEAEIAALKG

APC9096-AA = target: T36, APC9096-AA; experiment: two-hybrid library CCmax; conditions: mean of both orientations
T36 chain: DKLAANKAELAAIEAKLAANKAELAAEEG

APC1434-AA = target: T37, APC1434-AA; experiment: two-hybrid library CCmax; conditions: mean of both orientations
T37 chain: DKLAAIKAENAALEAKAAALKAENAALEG

4H2458-AA = target: T38, 4H2458-AA; experiment: two-hybrid library CCmax; conditions: mean of both orientations
T38 chain: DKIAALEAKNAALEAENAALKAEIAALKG

4H2143-AA = target: T39, 4H2143-AA; experiment: two-hybrid library CCmax
T39 chain: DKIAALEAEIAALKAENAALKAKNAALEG

4H733-AA = target: T40, 4H733-AA; experiment: two-hybrid library CCmax; conditions: mean of both orientations
T40 chain: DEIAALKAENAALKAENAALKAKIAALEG

APC4436-AA = target: T41, APC4436-AA; experiment: two-hybrid library CCmax; conditions: mean of both orientations
T41 chain: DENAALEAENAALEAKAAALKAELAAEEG

APC4264-AA = target: T42, APC4264-AA; experiment: two-hybrid library CCmax; conditions: mean of both orientations
T42 chain: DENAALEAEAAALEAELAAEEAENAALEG

APC3645-AA = target: T43, APC3645-AA; experiment: two-hybrid library CCmax; conditions: mean of both orientations
T43 chain: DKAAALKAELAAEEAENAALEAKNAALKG

APC4011-AA = target: T44, APC4011-AA; experiment: two-hybrid library CCmax; conditions: mean of both orientations
T44 chain: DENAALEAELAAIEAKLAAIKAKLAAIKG

APC6108-AA = target: T45, APC6108-AA; experiment: two-hybrid library CCmax; conditions: mean of both orientations
T45 chain: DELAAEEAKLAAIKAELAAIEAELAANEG

interaction score (4H1359-bH): 0.989
interaction score (4H3638-bH): -0.989
interaction score (4H3974-bH): 0.477
interaction score (4H3414-bH): -0.291
interaction score (4H3817-bH): 0.0285
interaction score (4H1629-bH): -0.6
interaction score (4H932-bN): -1.75
interaction score (4H3129-bH): -0.249
interaction score (4H1985-bH): 0.67
interaction score (4H1710-bH): -0.389
interaction score (4H619-bH): -0.165
interaction score (4H1804-bH): 0.574
interaction score (4H584-bH): 0.303
interaction score (4H570-bH): -1.09
interaction score (4H3172-bH): -0.46
interaction score (4H3631-bH): 0.884
interaction score (4H906-bH): 0.0222
interaction score (4H1449-bH): 0.00778
interaction score (4H1393-bH): -0.756
interaction score (4H850-bH): -0.848
Binder: DENQELEKKIEELKREIWELKKKNQELER [4H1359-bH]

interaction score (APC8910-AA): -1.84
interaction score (APC5383-AA): -1.98
interaction score (APC232-AA): -2.06
interaction score (4H716-AA): -1.59
interaction score (4H807-AA): -1.57
interaction score (APC7099-AA): -1.51
interaction score (APC9319-AA): -1.6
interaction score (APC2405-AA): -1.48
interaction score (APC1015-AA): -1.78
interaction score (APC2237-AA): -1.56
interaction score (4H2148-AA): -1.43
interaction score (4H2447-AA): -1.64
interaction score (APC8191-AA): -1.3
interaction score (4H3330-AA): -0.836
interaction score (4H2290-AA): -1.42
interaction score (APC9096-AA): -1.82
interaction score (APC1434-AA): -1.23
interaction score (4H2458-AA): -1.32
interaction score (4H2143-AA): 2.12
interaction score (4H733-AA): -1.41
interaction score (APC4436-AA): -1.85
interaction score (APC4264-AA): -1.81
interaction score (APC3645-AA): -1.25
interaction score (APC4011-AA): -0.0916
interaction score (APC6108-AA): -1.49
Binder: DKIAALEAEIAALKAENAALKAKNAALEG [4H2143-AA]
